{"source": "patent US20260028387A1", "about": "(published 2026)", "data": [{"target": "T1, HLA-A*02:01 (peptide-receptive MHC class I molecule of the UV-ligand exchange assay) (human)", "T1 construct": "MHC monomer first loaded with a UV-sensitive peptide (not identified) that is cleaved by UV light and exchanged for the test peptide; captured on streptavidin plates", "test": "UV-ligand exchange, anti-b2m ELISA; peptide exchange yield grade (>=10% = +; >=20% = ++; >=50 = +++; >=75% = ++++)", "text": "Candidate peptides for T cell based therapies according to the present invention were further tested for their MHC binding capacity (affinity). The individual peptide-MHC complexes were produced by UV-ligand exchange, where a UV-sensitive peptide is cleaved upon UV-irradiation, and exchanged with the peptide of interest as analyzed. Only peptide candidates that can effectively bind and stabilize the peptide-receptive MHC molecules prevent dissociation of the MHC complexes. To determine the yield of the exchange reaction, an ELISA was performed based on the detection of the light chain (β2m) of stabilized MHC complexes. The assay was performed as generally described in Rodenko et al. (Rodenko et al., 2006).\n96 well MAXISorp plates (NUNC) were coated aver night with 2 ug/ml streptavidin in PBS at room temperature, washed 4× and blocked for 1 h at 37° C. in 2% BSA containing blocking buffer. Refolded HLA-A*02:01/MLA-001 monomers served as standards, covering the range of 15-500 ng/ml. Peptide-MHC monomers of the UV-exchange reaction were diluted 100 fold in blocking buffer. Samples were incubated for 1 h at 37° C., washed four times, incubated with 2 ug/ml HRP conjugated anti-02m for 1 h at 37° C., washed again and detected with TMB solution that is stopped with […]. Absorption was measured at 450 nm. Candidate peptides that show a high exchange yield (preferably higher than 50%, most preferred higher than 75%) are generally preferred for a generation and production of antibodies or fragments thereof, and/or T cell receptors or fragments thereof, as they show sufficient avidity to the MHC molecules and prevent dissociation of the MHC complexes.", "units": {"peptide exchange yield": "%"}, "values": [{"binder": "VLAEGGEGV (synthetic peptide; source gene PDPN)", "note": "[VLAEGGEGV (SEQ ID NO: 16)]", "peptide exchange yield": "50 to 75"}, {"binder": "GLAPNTPGKA (synthetic peptide; source gene PRC1)", "note": "[GLAPNTPGKA (SEQ ID NO: 57)]", "peptide exchange yield": "50 to 75"}, {"binder": "LLSGDLIFL (synthetic peptide; source gene GJB5)", "note": "[LLSGDLIFL (SEQ ID NO: 6)]", "peptide exchange yield": "50 to 75"}, {"binder": "SLLDTLREV (synthetic peptide; source gene PPP4R1)", "note": "[SLLDTLREV (SEQ ID NO: 59)]", "peptide exchange yield": "50 to 75"}, {"binder": "NLMASQPQL (synthetic peptide; source gene PKP1)", "note": "[NLMASQPQL (SEQ ID NO: 5)]", "peptide exchange yield": "50 to 75"}, {"binder": "FLLDQVQLGL (synthetic peptide; source gene TSPAN10)", "note": "[FLLDQVQLGL (SEQ ID NO: 18)]", "peptide exchange yield": "50 to 75"}, {"binder": "GAIDLLHNV (synthetic peptide; source gene GBP5)", "note": "[GAIDLLHNV (SEQ ID NO: 55)]", "peptide exchange yield": "20 to 50"}, {"binder": "YQDLLNVKM (synthetic peptide; source genes DES, NEFM, NEFH, NEFL, VIM, INA)", "note": "[YQDLLNVKM (SEQ ID NO: 54)]", "peptide exchange yield": "50 to 75"}, {"binder": "VVVTGLTLV (synthetic peptide; source gene ARHGDIA)", "note": "[VVVTGLTLV (SEQ ID NO: 53)]", "peptide exchange yield": "20 to 50"}, {"binder": "LLANGVYAA (synthetic peptide; source gene ANO1)", "note": "[LLANGVYAA (SEQ ID NO: 15)]", "peptide exchange yield": "10 to 20"}, {"binder": "YTQPFSHYGQAL (synthetic peptide; source gene RNPEP)", "note": "[YTQPFSHYGQAL (SEQ ID NO: 37)]", "peptide exchange yield": "50 to 75"}, {"binder": "PAVLQSSGLYSL (synthetic peptide; source genes IGHV4-31, IGHG1, IGHG2, IGHG3, IGHG4, IGHM)", "note": "[PAVLQSSGLYSL (SEQ ID NO: 68)]", "peptide exchange yield": "20 to 50"}, {"binder": "SLYNLGGSKRISI (synthetic peptide; source gene KRT5)", "note": "[SLYNLGGSKRISI (SEQ ID NO: 2)]", "peptide exchange yield": "≥ 75"}, {"binder": "SMNGGVFAV (synthetic peptide; source gene SLC7A11)", "note": "[SMNGGVFAV (SEQ ID NO: 67)]", "peptide exchange yield": "20 to 50"}, {"binder": "GLESEELEPEEL (synthetic peptide; source gene PABPN1)", "note": "[GLESEELEPEEL (SEQ ID NO: 41)]", "peptide exchange yield": "20 to 50"}, {"binder": "GLAFSLYQA (synthetic peptide; source gene SERPINH1)", "note": "[GLAFSLYQA (SEQ ID NO: 40)]", "peptide exchange yield": "20 to 50"}, {"binder": "SLDGFTIQV (synthetic peptide; source gene OAS2)", "note": "[SLDGFTIQV (SEQ ID NO: 28)]", "peptide exchange yield": "20 to 50"}, {"binder": "RLPNAGTQV (synthetic peptide; source gene ITGA6)", "note": "[RLPNAGTQV (SEQ ID NO: 14)]", "peptide exchange yield": "≥ 75"}, {"binder": "SIFEGLLSGV (synthetic peptide; source gene GJB5)", "note": "[SIFEGLLSGV (SEQ ID NO: 7)]", "peptide exchange yield": "20 to 50"}, {"binder": "VLPKLYVKL (synthetic peptide; source genes RPS26P11, RPS26, RPS26P28, RPS26P15, RPS26P25, RPS26P58)", "note": "[VLPKLYVKL (SEQ ID NO: 31)]", "peptide exchange yield": "20 to 50"}, {"binder": "IAAIRGFLV (synthetic peptide; source gene ABHD11)", "note": "[IAAIRGFLV (SEQ ID NO: 38)]", "peptide exchange yield": "50 to 75"}, {"binder": "ALYEYQPLQI (synthetic peptide; source gene MNAT1)", "note": "[ALYEYQPLQI (SEQ ID NO: 62)]", "peptide exchange yield": "20 to 50"}, {"binder": "YMLDIFHEV (synthetic peptide; source gene HAS3)", "note": "[YMLDIFHEV (SEQ ID NO: 32)]", "peptide exchange yield": "20 to 50"}, {"binder": "GLAPFLLNAV (synthetic peptide; source gene FAM115C)", "note": "[GLAPFLLNAV (SEQ ID NO: 19)]", "peptide exchange yield": "50 to 75"}, {"binder": "STYGGGLSV (synthetic peptide; source gene KRT14, KRT16)", "note": "[STYGGGLSV (SEQ ID NO: 1)]", "peptide exchange yield": "50 to 75"}, {"binder": "TQTAVITRI (synthetic peptide; source gene FAM83D)", "note": "[TQTAVITRI (SEQ ID NO: 42)]", "peptide exchange yield": "10 to 20"}, {"binder": "FLPPAQVTV (synthetic peptide; source gene NOL6)", "note": "[FLPPAQVTV (SEQ ID NO: 72)]", "peptide exchange yield": "20 to 50"}, {"binder": "LLRFSQDNA (synthetic peptide; source gene LAP3)", "note": "[LLRFSQDNA (SEQ ID NO: 35)]", "peptide exchange yield": "50 to 75"}, {"binder": "LVRDTQSGSL (synthetic peptide; source gene SERPINH1)", "note": "[LVRDTQSGSL (SEQ ID NO: 39)]", "peptide exchange yield": "20 to 50"}, {"binder": "IVREFLTAL (synthetic peptide; source gene CRCP)", "note": "[IVREFLTAL (SEQ ID NO: 21)]", "peptide exchange yield": "50 to 75"}, {"binder": "MISRTPEV (synthetic peptide; source genes F7, IGHV4-31, IGHG1, IGHG2, IGHG3, IGHG4, IGHM)", "note": "[MISRTPEV (SEQ ID NO: 17)]", "peptide exchange yield": "20 to 50"}, {"binder": "YVVGGFLYQRL (synthetic peptide; source gene M6PR)", "note": "[YVVGGFLYQRL (SEQ ID NO: 65)]", "peptide exchange yield": "50 to 75"}, {"binder": "VAIGGVDGNVRL (synthetic peptide; source gene WDR1)", "note": "[VAIGGVDGNVRL (SEQ ID NO: 52)]", "peptide exchange yield": "20 to 50"}, {"binder": "TQTTHELTI (synthetic peptide; source gene PCBP1)", "note": "[TQTTHELTI (SEQ ID NO: 61)]", "peptide exchange yield": "50 to 75"}, {"binder": "VLASGFLTV (synthetic peptide; source gene TTPAL)", "note": "[VLASGFLTV (SEQ ID NO: 47)]", "peptide exchange yield": "≥ 75"}, {"binder": "NLREGDQLL (synthetic peptide; source gene AHNAK2)", "note": "[NLREGDQLL (SEQ ID NO: 27)]", "peptide exchange yield": "50 to 75"}, {"binder": "GLASRILDA (synthetic peptide; source gene LAMB3)", "note": "[GLASRILDA (SEQ ID NO: 12)]", "peptide exchange yield": "50 to 75"}, {"binder": "KVVGKDYLL (synthetic peptide; source gene CAPZB)", "note": "[KVVGKDYLL (SEQ ID NO: 43)]", "peptide exchange yield": "10 to 20"}, {"binder": "GLLVGSEKVTM (synthetic peptide; source genes KRT14, KRT16, KRT16P3)", "note": "[GLLVGSEKVTM (SEQ ID NO: 69)]", "peptide exchange yield": "50 to 75"}, {"binder": "KLSDSATYL (synthetic peptide)", "note": "[KLSDSATYL (SEQ ID NO: 23)]", "peptide exchange yield": "50 to 75"}, {"binder": "ALWLPTDSATV (synthetic peptide; source gene LAMB3)", "note": "[ALWLPTDSATV (SEQ ID NO: 11)]", "peptide exchange yield": "50 to 75"}, {"binder": "LLDEKVQSV (synthetic peptide; source gene TSHZ3)", "note": "[LLDEKVQSV (SEQ ID NO: 66)]", "peptide exchange yield": "50 to 75"}, {"binder": "LILESIPVV (synthetic peptide; source gene MAPK6)", "note": "[LILESIPVV (SEQ ID NO: 58)]", "peptide exchange yield": "20 to 50"}, {"binder": "GLDVTSLRPFDL (synthetic peptide; source gene FLNA)", "note": "[GLDVTSLRPFDL (SEQ ID NO: 33)]", "peptide exchange yield": "50 to 75"}, {"binder": "KLNDTYVNV (synthetic peptide; source gene TMEM194A)", "note": "[KLNDTYVNV (SEQ ID NO: 22)]", "peptide exchange yield": "50 to 75"}, {"binder": "SLDGTELQL (synthetic peptide; source gene TMEM102)", "note": "[SLDGTELQL (SEQ ID NO: 29)]", "peptide exchange yield": "50 to 75"}, {"binder": "MLAEKLLQA (synthetic peptide; source gene FAT1)", "note": "[MLAEKLLQA (SEQ ID NO: 26)]", "peptide exchange yield": "10 to 20"}, {"binder": "KLFGHLTSA (synthetic peptide; source gene PHTF2)", "note": "[KLFGHLTSA (SEQ ID NO: 51)]", "peptide exchange yield": "20 to 50"}, {"binder": "VVMEELLKV (synthetic peptide; source gene CYFIP1)", "note": "[VVMEELLKV (SEQ ID NO: 60)]", "peptide exchange yield": "20 to 50"}, {"binder": "SLSPVILGV (synthetic peptide; source gene IL36RN)", "note": "[SLSPVILGV (SEQ ID NO: 13)]", "peptide exchange yield": "≥ 75"}, {"binder": "SLVSEQLEPA (synthetic peptide; source gene PKP3)", "note": "[SLVSEQLEPA (SEQ ID NO: 34)]", "peptide exchange yield": "50 to 75"}, {"binder": "TASAITPSV (synthetic peptide; source gene KRT5)", "note": "[TASAITPSV (SEQ ID NO: 3)]", "peptide exchange yield": "50 to 75"}, {"binder": "ALVEVTEHV (synthetic peptide; source gene TMEM132A)", "note": "[ALVEVTEHV (SEQ ID NO: 56)]", "peptide exchange yield": "20 to 50"}, {"binder": "FVLDTSESV (synthetic peptide; source genes COL6A1, COL6A2)", "note": "[FVLDTSESV (SEQ ID NO: 70)]", "peptide exchange yield": "50 to 75"}, {"binder": "SMHQMLDQTL (synthetic peptide; source gene TPM1)", "note": "[SMHQMLDQTL (SEQ ID NO: 48)]", "peptide exchange yield": "20 to 50"}, {"binder": "YTAQIGADIAL (synthetic peptide; source genes TPSB2, TPSAB1)", "note": "[YTAQIGADIAL (SEQ ID NO: 46)]", "peptide exchange yield": "50 to 75"}, {"binder": "GLMKDIVGA (synthetic peptide; source gene KYNU)", "note": "[GLMKDIVGA (SEQ ID NO: 49)]", "peptide exchange yield": "50 to 75"}, {"binder": "LLFAGTMTV (synthetic peptide; source gene CYP2S1)", "note": "[LLFAGTMTV (SEQ ID NO: 24)]", "peptide exchange yield": "20 to 50"}, {"binder": "MLTELEKAL (synthetic peptide; source gene S100A8)", "note": "[MLTELEKAL (SEQ ID NO: 45)]", "peptide exchange yield": "20 to 50"}, {"binder": "LLPPPPPPA (synthetic peptide; source gene ADAMTS2)", "note": "[LLPPPPPPA (SEQ ID NO: 25)]", "peptide exchange yield": "50 to 75"}, {"binder": "SLNGNQVTV (synthetic peptide; source gene QSER1)", "note": "[SLNGNQVTV (SEQ ID NO: 30)]", "peptide exchange yield": "10 to 20"}, {"binder": "GLTDVIRDV (synthetic peptide; source gene FBXL18)", "note": "[GLTDVIRDV (SEQ ID NO: 64)]", "peptide exchange yield": "≥ 75"}, {"binder": "FLLRFSQDNA (synthetic peptide; source gene LAP3)", "note": "[FLLRFSQDNA (SEQ ID NO: 36)]", "peptide exchange yield": "20 to 50"}, {"binder": "ASDPILYRPVAV (synthetic peptide; source gene PKM)", "note": "[ASDPILYRPVAV (SEQ ID NO: 71)]", "peptide exchange yield": "50 to 75"}, {"binder": "ATGNDRKEAAENSL (synthetic peptide; source gene YWHAE)", "note": "[ATGNDRKEAAENSL (SEQ ID NO: 44)]", "peptide exchange yield": "50 to 75"}, {"binder": "LAYTLGVKQL (synthetic peptide; source genes EEF1A1P5, EEF1A1, EEF1A2)", "note": "[LAYTLGVKQL (SEQ ID NO: 63)]", "peptide exchange yield": "50 to 75"}]}]}
